Measured values from US20230194547A1 (Hoffmann-La Roche, published 2023).

Columns and labels:
[1] = molecular target: T1, human FcRn beta-2-microglobulin complex, biotinylated, coupled to streptavidin Sepharose (human, UniProt P55899 24-297; P61769 21-119, limits assumed, biotinylated (Bulk BIRA kit, Avidity)); assay: FcRn affinity chromatography, pH gradient 5.5 to 8.8; dye-labelled antibody
T1 construct: Secreted complex purified from the supernatant; also called neonatal Fc receptor; human FcRn chromatography column
T1 sequence (P55899 24-297 limits assumed, chain 1 of 2): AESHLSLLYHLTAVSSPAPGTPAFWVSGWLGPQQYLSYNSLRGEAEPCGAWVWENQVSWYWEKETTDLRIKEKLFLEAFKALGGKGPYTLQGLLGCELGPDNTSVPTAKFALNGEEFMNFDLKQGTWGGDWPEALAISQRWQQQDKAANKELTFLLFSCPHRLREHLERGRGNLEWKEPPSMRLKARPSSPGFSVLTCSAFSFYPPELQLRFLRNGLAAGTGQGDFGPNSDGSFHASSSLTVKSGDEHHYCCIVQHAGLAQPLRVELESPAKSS
T1 sequence (P61769 21-119 limits assumed, chain 2 of 2): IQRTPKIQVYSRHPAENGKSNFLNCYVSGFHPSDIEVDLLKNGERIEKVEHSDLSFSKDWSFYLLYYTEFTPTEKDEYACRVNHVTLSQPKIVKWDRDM
Protocol: (§1) The UV light absorption at a wavelength of 280 nm was used for detection. The column was regenerated for 10 minutes using 20% buffer B after each run.

[2] = molecular target: T1, human FcRn beta-2-microglobulin …; assay: FcRn affinity chromatography, pH gradient 5.5 to 8.8; unlabelled antibody
Protocol: as §1

| Binder | relative retention time on FcRn affinity column [1] | relative retention time on FcRn affinity column [2] |
| --- | --- | --- |
| anti-human phospho tau 422 antibody, labelled with pHAb dye (antibody, human IgG1, kappa, L234A L235A, pHAb dye on a sulfo DBCO-PEG4-amine linker, clicked to the azide-modified N-glycan of the Fc-region, also called anti-pTau antibody; anti-human p(422)Tau antibody) heavy: not shown light: AQVMTQSPSSLSASVGDRVTITCRSSQSVRTNRLAWFQQKPGQPPKRLIYSASTLDYGVPSRFSGSGSGTEFTLTISSLQPEDFATYYCLGYFDSSADIVAFGGGTKVEIKRTVAAPSVFIFPPSDEQLKSGTASVVCLLNNFYPREAKVQWKVDNALQSGNSQESVTEQDSKDSTYSLSSTLTLSKADYEKHKVYACEVTHQGLSSPVTKSFNRGEC | 1.18 relative to anti-Her3 antibody standard |  |
| anti-human phospho tau 422 antibody (antibody, human IgG1, kappa, L234A L235A, IgG1, unlabelled; also called anti-pTau antibody; anti-human p(422)Tau antibody) heavy: not shown light: AQVMTQSPSSLSASVGDRVTITCRSSQSVRTNRLAWFQQKPGQPPKRLIYSASTLDYGVPSRFSGSGSGTEFTLTISSLQPEDFATYYCLGYFDSSADIVAFGGGTKVEIKRTVAAPSVFIFPPSDEQLKSGTASVVCLLNNFYPREAKVQWKVDNALQSGNSQESVTEQDSKDSTYSLSSTLTLSKADYEKHKVYACEVTHQGLSSPVTKSFNRGEC |  | 1.13 relative to anti-Her3 antibody standard |
| Ixekizumab (antibody) chain 1: not shown chain 2: DIVMTQTPLSLSVTPGQPASISCRSSRSLVHSRGNTYLHWYLQKPGQSPQLLIYKVSNRFIGVPDRFSGSGSGTDFTLKISRVEAEDVGVYYCSQSTHLPFTFGQGTKLEIKRTVAAPSVFIFPPSDEQLKSGTASVVCLLNNFYPREAKVQWKVDNALQSGNSQESVTEQDSKDSTYSLSSTLTLSKADYEKHKVYACEVTHQGLSSPVTKSFNRGEC |  | 1.42 relative to anti-Her3 antibody standard |
| Vedolizumab (antibody) chain 1: not shown chain 2: DVVMTQSPLSLPVTPGEPASISCRSSQSLAKSYGNTYLSWYLQKPGQSPQLLIYGISNRFSGVPDRFSGSGSGTDFTLKISRVEAEDVGVYYCLQGTHQPYTFGQGTKVEIKRTVAAPSVFIFPPSDEQLKSGTASVVCLLNNFYPREAKVQWKVDNALQSGNSQESVTEQDSKDSTYSLSSTLTLSKADYEKHKVYACEVTHQGLSSPVTKSFNRGEC |  | 0.33 relative to anti-Her3 antibody standard |
